{
  "source": "patent US10143730B2",
  "about": "“Peptides and combination of peptides for use in immunotherapy against various cancers” (immatics biotechnologies GmbH, priority 2015, dated 2018)",
  "data": [
    {"target": "T1, HLA-A*02 (Homo sapiens, UniProt P04439, D140Y/D185E/D98H/E176V/E277Q/G131W/G231S/I119V/I121R/I166T/I218V/L300P/N151K/N90K/P208A/P217A/Q86G/Q94H/R138H/R169H)", "T1 construct": "made in house", "experiment": "MHC binding assay, UV-ligand exchange with beta2m ELISA (peptide exchange yield)", "conditions": "binding to HLA-A*02", "text": "Candidate peptides for T cell based therapies according to the present invention were further tested for their MHC binding capacity (affinity). The individual peptide-MHC complexes were produced by UV-ligand exchange, where a UV-sensitive peptide is cleaved upon UV-irradiation, and exchanged with the peptide of interest as analyzed. Only peptide candidates that can effectively bind and stabilize the peptide-receptive MHC molecules prevent dissociation of the MHC complexes. To determine the yield of the exchange reaction, an ELISA was performed based on the detection of the light chain (β2m) of stabilized MHC complexes. The assay was performed as generally described in Rodenko et al. (Rodenko et al., 2006).\n96 well MAXISorp plates (NUNC) were coated over night with 2 ug/ml streptavidin in PBS at room temperature, washed 4× and blocked for 1h at 37° C. in 2% BSA containing blocking buffer. Refolded HLA-A*02:01/MLA-001 monomers served as standards, covering the range of 15-500 ng/ml. Peptide-MHC monomers of the UV-exchange reaction were diluted 100 fold in blocking buffer. Samples were incubated for 1h at 37° C., washed four times, incubated with 2 ug/ml HRP conjugated anti-32m for 1h at 37° C., washed again and detected with TMB solution that is stopped with […]. Absorption was measured at 450 nm. Candidate peptides that show a high exchange yield (preferably higher than 50%, most preferred higher than 75%) are generally preferred for a generation and production of antibodies or fragments thereof, and/or T cell receptors or fragments thereof, as they show sufficient avidity to the MHC molecules and prevent dissociation of the MHC complexes.", "values": [
      {"substance": "111 (AIVDLIHDI; listed as Homo sapiens) [compound 111]", "Peptide exchange (MHC class I binding score, peptide exchange yield)": "++ (20%-49% = ++)"},
      {"substance": "82 (FIFDEAEKL; listed as Homo sapiens) [compound 82]", "Peptide exchange (MHC class I binding score, peptide exchange yield)": "+ (<20% = +)"},
      {"substance": "15 (YLDLSHNQL; listed as Homo sapiens) [compound 15]", "Peptide exchange (MHC class I binding score, peptide exchange yield)": "+++ (50%-75% = +++)"},
      {"substance": "146 (ALHFSEDEI; listed as Homo sapiens) [compound 146]", "Peptide exchange (MHC class I binding score, peptide exchange yield)": "++ (20%-49% = ++)"},
      {"substance": "25 (TMDSVLVTV; listed as Homo sapiens) [compound 25]", "Peptide exchange (MHC class I binding score, peptide exchange yield)": "+++ (50%-75% = +++)"},
      {"substance": "126 (QMFQYFITV; listed as Homo sapiens) [compound 126]", "Peptide exchange (MHC class I binding score, peptide exchange yield)": "++++ (> = 75% = ++++)"},
      {"substance": "85 (VLNDILVRA; listed as Homo sapiens) [compound 85]", "Peptide exchange (MHC class I binding score, peptide exchange yield)": "+++ (50%-75% = +++)"},
      {"substance": "260 (ILLEKILSL; listed as Homo sapiens) [compound 260]", "Peptide exchange (MHC class I binding score, peptide exchange yield)": "+++ (50%-75% = +++)"},
      {"substance": "34 (FLLATEVVTV; listed as Homo sapiens) [compound 34]", "Peptide exchange (MHC class I binding score, peptide exchange yield)": "++++ (> = 75% = ++++)"},
      {"substance": "54 (VLNPLITAV; listed as Homo sapiens) [compound 54]", "Peptide exchange (MHC class I binding score, peptide exchange yield)": "+++ (50%-75% = +++)"},
      {"substance": "242 (WLYGEDHQI; listed as Homo sapiens) [compound 242]", "Peptide exchange (MHC class I binding score, peptide exchange yield)": "++ (20%-49% = ++)"},
      {"substance": "153 (FISERVEVV; listed as Homo sapiens) [compound 153]", "Peptide exchange (MHC class I binding score, peptide exchange yield)": "++++ (> = 75% = ++++)"},
      {"substance": "65 (SVVPDVRSV; listed as Homo sapiens) [compound 65]", "Peptide exchange (MHC class I binding score, peptide exchange yield)": "++ (20%-49% = ++)"},
      {"substance": "95 (GLLGSLFFL; listed as Homo sapiens) [compound 95]", "Peptide exchange (MHC class I binding score, peptide exchange yield)": "++++ (> = 75% = ++++)"},
      {"substance": "50 (ILFHGVFYA; listed as Homo sapiens) [compound 50]", "Peptide exchange (MHC class I binding score, peptide exchange yield)": "+++ (50%-75% = +++)"},
      {"substance": "73 (YTLREVDTV; listed as Homo sapiens) [compound 73]", "Peptide exchange (MHC class I binding score, peptide exchange yield)": "++ (20%-49% = ++)"},
      {"substance": "112 (SLGKFTFDV; listed as Homo sapiens) [compound 112]", "Peptide exchange (MHC class I binding score, peptide exchange yield)": "++++ (> = 75% = ++++)"},
      {"substance": "80 (KLYEADFVL; listed as Homo sapiens) [compound 80]", "Peptide exchange (MHC class I binding score, peptide exchange yield)": "++ (20%-49% = ++)"},
      {"substance": "135 (HLSTIIHEA; listed as Homo sapiens) [compound 135]", "Peptide exchange (MHC class I binding score, peptide exchange yield)": "+++ (50%-75% = +++)"},
      {"substance": "129 (RLQDILWFL; listed as Homo sapiens) [compound 129]", "Peptide exchange (MHC class I binding score, peptide exchange yield)": "++++ (> = 75% = ++++)"},
      {"substance": "243 (FMADDIFSV; listed as Homo sapiens) [compound 243]", "Peptide exchange (MHC class I binding score, peptide exchange yield)": "+++ (50%-75% = +++)"},
      {"substance": "252 (RLMEICESL; listed as Homo sapiens) [compound 252]", "Peptide exchange (MHC class I binding score, peptide exchange yield)": "+++ (50%-75% = +++)"},
      {"substance": "117 (KMPDVELFV; listed as Homo sapiens) [compound 117]", "Peptide exchange (MHC class I binding score, peptide exchange yield)": "+++ (50%-75% = +++)"},
      {"substance": "66 (KLIFSVEAV; listed as Homo sapiens) [compound 66]", "Peptide exchange (MHC class I binding score, peptide exchange yield)": "+++ (50%-75% = +++)"},
      {"substance": "87 (TIYKDFVYI; listed as Homo sapiens) [compound 87]", "Peptide exchange (MHC class I binding score, peptide exchange yield)": "++ (20%-49% = ++)"}
    ]}
  ]
}
